# Results taken from patent US20210341478A1 (ANTAIMMU BIOMED, published 2021).
# Molecular target: T1, nucleocapsid protein of SARS-CoV-2 expressed in HEK-293 cells (SARS-CoV-2, UniProt P0DTC9 1-419)
# T1 construct: also called 293-NP; 293-NP cell lysates
# Test: ELISA on HEK-293 lysate 293-NP (FIG. 3)
binder,measurement,value
"NP-3 IgG (antibody, V domains shown) VH: EVQLVESGGGLVQPGGSLRLSCAASGFTITDYGIHWVRQAPGKGLEWVAYIGPSDGDTHYADSVKGRFTISADTSKNTAYLQMNSLRAEDTAVYYCARTGGYNSWYMDYWGQGTLVTVSS VL: DIQMTQSPSSLSASVGDRVTITCRASQDVNNWVAWYQQKPGKAPKLLIYFTSYLYSGVPSRFSGSGSGTDFTLTISSLQPEDFATYYCQQHSTYPFTFGQGTKVEIKR",binding result,binds
"NP-4 IgG (antibody, V domains shown) VH: EVQLVESGGGLVQPGGSLRLSCAASGFTITNWWIHWVRQAPGKGLEWVAAISPFNGKTHYADSVKGRFTISADTSKNTAYLQMNSLRAEDTAVYYCARLLSIYDYWGQGTLVTVSS VL: DIQMTQSPSSLSASVGDRVSITCRASQDVWYYVAWYQQKPGKAPKLLISRTNWLDSGVPSRFSGSGSGTDFTLTISSLQPEDFATYYCQQYSDYPLTFGQGTKVEIKR",binding result,binds
